Kd data for three molecules are collected here from patent US20070053902 (published 2007).

Experiment [1] concerns the target T1, human integrin alphavbeta3 (human, UniProt P06756).
T1 chain 1: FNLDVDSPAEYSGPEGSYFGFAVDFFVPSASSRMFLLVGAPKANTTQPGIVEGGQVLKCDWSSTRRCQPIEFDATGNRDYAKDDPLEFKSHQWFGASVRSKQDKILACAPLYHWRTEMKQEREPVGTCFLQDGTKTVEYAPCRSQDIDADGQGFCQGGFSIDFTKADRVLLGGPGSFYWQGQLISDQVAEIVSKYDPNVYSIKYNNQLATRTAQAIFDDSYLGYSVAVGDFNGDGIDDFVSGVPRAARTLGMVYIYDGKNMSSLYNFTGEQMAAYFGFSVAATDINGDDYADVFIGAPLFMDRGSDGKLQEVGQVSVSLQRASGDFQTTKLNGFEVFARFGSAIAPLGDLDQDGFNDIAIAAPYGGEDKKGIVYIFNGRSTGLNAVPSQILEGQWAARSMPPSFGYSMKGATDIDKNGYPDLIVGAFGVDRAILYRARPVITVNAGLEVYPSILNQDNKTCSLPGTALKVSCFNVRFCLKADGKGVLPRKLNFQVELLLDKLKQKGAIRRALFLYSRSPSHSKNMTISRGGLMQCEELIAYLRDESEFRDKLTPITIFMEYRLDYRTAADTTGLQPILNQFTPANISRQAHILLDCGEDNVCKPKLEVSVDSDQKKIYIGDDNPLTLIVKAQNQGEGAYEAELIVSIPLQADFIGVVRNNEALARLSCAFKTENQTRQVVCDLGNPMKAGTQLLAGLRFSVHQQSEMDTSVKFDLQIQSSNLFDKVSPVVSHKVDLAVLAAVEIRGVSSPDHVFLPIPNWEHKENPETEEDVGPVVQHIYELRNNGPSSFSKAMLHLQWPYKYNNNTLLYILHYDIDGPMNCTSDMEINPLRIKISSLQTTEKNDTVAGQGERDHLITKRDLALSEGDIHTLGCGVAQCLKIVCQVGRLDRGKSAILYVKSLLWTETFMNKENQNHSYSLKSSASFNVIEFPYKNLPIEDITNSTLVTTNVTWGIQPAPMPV
T1 chain 2: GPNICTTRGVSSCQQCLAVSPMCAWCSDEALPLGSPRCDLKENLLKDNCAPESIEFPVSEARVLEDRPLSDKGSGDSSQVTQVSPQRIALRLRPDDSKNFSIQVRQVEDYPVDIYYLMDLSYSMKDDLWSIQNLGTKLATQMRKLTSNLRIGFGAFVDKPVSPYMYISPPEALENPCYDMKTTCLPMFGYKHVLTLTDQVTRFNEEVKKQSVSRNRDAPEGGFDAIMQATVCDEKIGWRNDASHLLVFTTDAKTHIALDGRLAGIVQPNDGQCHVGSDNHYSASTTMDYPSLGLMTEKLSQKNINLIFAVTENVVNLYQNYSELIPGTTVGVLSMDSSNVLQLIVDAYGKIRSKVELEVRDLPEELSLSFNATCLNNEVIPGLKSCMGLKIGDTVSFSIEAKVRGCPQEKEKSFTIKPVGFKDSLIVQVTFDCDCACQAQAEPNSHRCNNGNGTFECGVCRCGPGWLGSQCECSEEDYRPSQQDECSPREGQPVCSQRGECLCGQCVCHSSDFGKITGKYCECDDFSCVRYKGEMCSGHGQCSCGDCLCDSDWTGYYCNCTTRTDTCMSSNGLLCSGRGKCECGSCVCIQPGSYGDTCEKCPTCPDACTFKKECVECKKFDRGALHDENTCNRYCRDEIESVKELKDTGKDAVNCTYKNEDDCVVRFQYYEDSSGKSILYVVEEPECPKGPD
Nature of the experiment: SPR.

Experiment [2] addresses T1, human integrin alphavbeta3. Nature of the experiment: SPR.

Read-outs that look alike come from different tables or passages of the source.

B1: HZD12-IgG4 (antibody, V domains shown)
VH: QVQLVQSGAEVKKPGASVKVSCKASGYAFTSYNMYWVRQAPGQGLEWIGYIDPYNGDTFYNQKFKGKATLTVDKSTSTAYMELSSLRSEDTAVYYCARQNYGSFAYWGQGTLVTVSS
VL: DIVLTQSPGTLSLSPGERATLSCRASQSISNHLHWYQQKPGQAPRLLIKYASQSISGIPSRFSGSGSGTDFTLTISRLEPEDFAVYYCQQSNSWPFTFGQGTKVEIK
B1 registered a Kd in experiment [1] of 1.1 nM.

B2: HZD12-IgG1 (antibody, V domains shown)
VH: QVQLVQSGAEVKKPGASVKVSCKASGYAFTSYNMYWVRQAPGQGLEWIGYIDPYNGDTFYNQKFKGKATLTVDKSTSTAYMELSSLRSEDTAVYYCARQNYGSFAYWGQGTLVTVSS
VL: DIVLTQSPGTLSLSPGERATLSCRASQSISNHLHWYQQKPGQAPRLLIKYASQSISGIPSRFSGSGSGTDFTLTISRLEPEDFAVYYCQQSNSWPFTFGQGTKVEIK
For the molecule B2, in experiment [1], the affinity, expressed as Kd, was 1 nM.

B3: murine D12 (antibody, V domains shown)
VH: EIQLQQSGPEVVKPGASVKVSCKASGYAFTSYNMYWVKQSHGKSLEWIGYIDPYNGDTFYNQKFKGKATLTVDKSSSTAYMHLNSLTSEDSAVFYCARQNYGSFAYWGQGTLVTVSA
VL: DIVLTQSPATLSVTPGDSVSLSCRASQSISNHLHWYQQRSHESPRLLIKYASQSISGIPSRFRGSGSGTDFTLNINILETEDFGMYFCQQSNSWPFTFGSGTNLEIKR
Regarding B3, the Kd in experiment [2] is 0.53 nM; in experiment [1] it was 1.3 nM.
